# According to patent US20040202655A1 (published 2004):
# Positions count from the first letter of the chain named. Where “and” joins values, the source holds several entries; their conditions need not be identical. Equal values may be shown once.
# B1: PINT-11A1 IgG (antibody, V domains shown)
# VH: EVQLVESGGGVVQPGRSLRLSCAASGFTFSDFAMHWVRQIPGKGLEWLSGLRHDGSTAYYAGSVKGRFTISRDNSRNTVYLQMNSLRAEDTATYYCVTGSGSSGPHAFPVWGKGTLVTVSS
# VL: not shown
# B2: PINT-7A2 IgG (antibody, V domains shown)
# VH: GVQLVQSGAEVKKPGESLTISCKGSGYNFFNYWIGWVRQMPGKGLEWMGIIYPTDSDTRYSPSFQGQVTISVDKSISTAYLQWSSLKASDTAMYYCARSIRYCPGGRCYSGYYGMDVWGQGTMVTVSS
# VL: SELTQDPAVSVALGQTVRITCQGDSLRSYYTNWFQQKPGQAPLLVVYAKNKRPSGIPDRFSGSSSGNTASLTITGAQAEDEADYYCNSRDSSGNHVVFGGGTKLTVLG
# B3: PINT-7A6 IgG (antibody, V domains shown)
# VH: B2 VH with G1E, M123L
# VL: B2 VL
# B4: PINT-11A12 IgG (antibody, V domains shown)
# VH: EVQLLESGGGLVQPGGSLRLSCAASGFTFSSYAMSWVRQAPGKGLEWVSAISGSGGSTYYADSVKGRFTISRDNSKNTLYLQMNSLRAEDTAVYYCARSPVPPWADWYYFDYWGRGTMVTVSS
# VL: AQAVLTQPSSVSGAPGQRVTISCTGSRSNFGAGYDVHWYQQFPGTAPKLLIYGNTNRPSGVPDRFSGSRSGTSASLAITGLQAEDEADYYCQSYDSNLSGSVFGGGTKVTVLG
# B5: PINT-11A11 IgG (antibody, V domains shown)
# VH: QVQLVESGGGLVKPGGSLRLSCAASGFTFSSHTMNWVRQAQGKGLEWVSSISGSGRYIYYSDSVKGRFTISRDAAKNSLYLQMNNLRAEDTAVYYCTRAKFGDYLFDSWGQGTLVTVSS
# VL: LNFMLTQPHSVSQSPGKTVTISCTRSSGRIASNFVQWYQQRPGSAPTTVIYEDNRRPSGVPDRFSGSIDSSSNSASLTISGLKTEDEADYYCQSYDARYQVFGTGTKVTVLG
# B6: PINT-11A2 IgG (antibody, V domains shown)
# VH: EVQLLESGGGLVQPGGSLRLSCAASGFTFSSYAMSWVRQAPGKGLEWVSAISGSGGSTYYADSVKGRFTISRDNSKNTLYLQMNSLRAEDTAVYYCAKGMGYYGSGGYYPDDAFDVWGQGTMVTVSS
# VL: LSSELTQDPDVSMALGQTVTISCRGDSLKRFYASWYHQKPGQAPVLVFYGKENRPSGIPDRFSGSDSGDTASLTITGAQAEDEGDYYCHTQDTSARQYVFGSGTKVTVLG
# B7: PINT-12A1 IgG (antibody, V domains shown)
# VH: EVQLVQSGAEVKKPGASVKVSCKASGYSFTNYGLNWVRQAPGQGLEWMGWISPYTGYTNYAQKFQGRVTMTTDKSTSTAYMDLRSLRSDDTAVYYCAREIFSHCTGGSCYPFDSWGKGTLVTVSS
# VL: LSSELTQDPAVSVALGQTVRITCQGDSLRNYYASWYQQKPGQAPVLVLYSKNSRPSGVPDRFSGSSSGTTASLTISGAQAEDEADYYCNSRDTSGDLRWVFGGGTKLTVLG
# notes: see recheck
# B8: PINT-12A3 IgG (antibody, V domains shown)
# VH: B7 VH with E1Q, T72S, V93I, T105S, S114Y, K117Q
# VL: LSSELTQDPAVSVALGQTVRITCQGDSLRSYYASWYQQKPGQAPLLVIYGRNNRPSGIPDRFSGSSSGNTASLTITGAQAEDEADYYCNSRDSSTNHGNWVFGGGTQLTVLS
# B9: PINT-11A7 IgG (antibody, V domains shown)
# VH: B7 VH with N35D, K117R, L120M
# VL: B8 VL with L45V, R51K, T95G, G98R, Q107K, L108V, S112G
# B10: PINT-11A5 IgG (antibody, V domains shown)
# VH: B7 VH with E1Q
# VL: LSSELTQDPAVSVALGQTVRITCQGDSLRSYYASWYQQKPGQAPVLVIYGKNNRPSGIPDRFSGSSSGNTASLTITGAQAEDEADYYCNSRDSSGNHHWVFGGGTKVTVLG
# B11: PINT-12A4 IgG (antibody, V domains shown)
# VH: B7 VH with E1Q, K117R, L120M
# VL: B10 VL with H97L, H98N, K106Q, V107L, G111S
# B12: PINT-12A2 IgG (antibody, V domains shown)
# VH: B7 VH with K117Q
# VL: LSSELTQDPAVSVALGQTVRITCQGDSLRNYYASWYQQKPGQAPLLVMFGKNNRPSEIPGRFSGSSSGNTASLTITGAQAEDEADYYCNSRDSNSHQWVFGGGTKLTVLG
# B13: PINT-11A3 IgG (antibody, V domains shown)
# VH: B7 VH with K117R
# VL: B12 VL with S93R
# Molecular target: T1, human IGF-I receptor on cells (NIH-3T3 fibroblasts expressing the human IGF-IR; DU145 cells) (human, UniProt P08069 31-1367)
# T1 construct: whole, on cells; Mature receptor is an alpha2-beta2 tetramer cut from one precursor; also called IGF-1R; hu-IGF-1R
# Assay: competition with 125I-IGF-II, NIH-3T3 cells expressing human IGF-1R, 4 C
# Description: (§1) NIH-3T3 fibroblasts expressing the human IGF-IR, or NIH-3T3 non-transfected fibroblasts were plated at 6×10⁴ cells per well in 0.5 ml of DMEM (Gibco, #11960-044) supplemented with 10% heat-inactivated fetal bovine serum (Gibco, #16140-071), 2 mM L-glutamine (Gibco, #25030-081) and 50 U/ml penicillin-streptomycin (Gibco, #15070-063). The NIH-3T3 cells were used as a control for non-specific cell binding. The plates were incubated at 37° C./5% CO₂ for 24 hours to allow cells to attach and become 80-90% confluent. The overlying media was then replaced with 0.5 ml per well of starvation media consisting of DMEM, 20 mM Hepes (Gibco, #15630-080), 2 mM L-glutamine and 0.1% bovine serum albumin (Equitech-Bio, protease-free, Kerrville, Tex.) and the plates were incubated at 37° C., 5% CO₂ overnight. All subsequent binding steps were conducted at 4° C. Test antibodies were diluted in ice-cold starvation media to the desired final concentration and 100 μl added per well. All samples were performed in duplicate. […] Cell monolayers were washed three times with ice-cold PBS (Gibco, #14040-117) and cells and associated radioactivity were released by adding 0.5ml 2% sodium dodecyl sulfate/0.2N NaOH to each well and heating the plates at 60° C. for 15 minutes. Lysate associated radioactivity was quantitated by gamma scintillation spectrometry. Alternatively, the same described experiment was performed with preincubation with the test antibodies at 37° C. for 10 minutes, followed by 10 minutes incubation at 37° C. after addition of 400 pM of the iodinated radioligand.
row,Binder,IC50
1,B1,> 75 nM
2,B2,< 0.8 nM and 0.4 nM
3,B3,< 0.8 nM and 0.3 nM

# Molecular target: T1, human IGF-I receptor on cells (NIH-3T3 …)
# Assay: cell-based or functional assay
row,Binder,"Antagonist Assay IC50 (nM), IGF-I-induced IGF-1R tyrosine phosphorylation (ELISA)"
1,B1,5.4 nM and 7.4 nM
2,B4,> 40 nM
3,B5,14.9 nM and 10.6 nM
4,B6,> 40 nM
5,B7,> 40 nM
6,B8,> 40 nM
7,B9,26.6 nM and > 40 nM and 25.5 nM
8,B10,> 40 nM
9,B11,> 40 nM
10,B12,> 40 nM
11,B2,2.62 nM and 1.97 nM
12,B3,9.7 nM and 8.5 nM

# Molecular target: T1, human IGF-I receptor on cells (NIH-3T3 …)
# Assay: cell-based or functional assay
# Remark: another data set of the same source
row,Binder,"IC50 (nM), IGF-1 dependent proliferation of NIH-3T3/hIGF-1R cells (BrdU ELISA)"
1,B1,5.4 nM and 3.3 nM
2,B4,> 70 nM
3,B5,16.4 nM and 25 nM
4,B6,> 70 nM
5,B13,32.1 nM and > 70 nM
6,B7,> 70 nM
7,B8,> 70 nM
8,B9,> 70 nM
9,B10,> 70 nM
10,B11,> 70 nM
11,B12,> 70 nM
12,B2,5 nM and 3.8 nM
13,B3,> 70 nM

# Molecular target: T2, human insulin receptor on CHO cells (human, UniProt P06213 28-1382)
# T2 construct: whole, on cells
# Assay: competition with 125I-insulin, CHO cells expressing human insulin receptor, 4 C
# Description: The Parental 3T3 cells were used as a control for background radioactivity. We then incubated the plates at 37° C., 5% CO₂ for 24 hours to allow cells to attach and become 80-90% confluent. The media was decanted from the plates, replaced with 500 μl per well of starvation or assay media consisting of IMDM, 20 mM Hepes (Gibco, #15630-080), 2 mM L-glutamine and 0.1% bovine serum albumin (Equitech-Bio, protease-free, Kerryville, Tex.) and the plates were incubated at 37° C., 5% CO₂ overnight. The antibodies were diluted in cold assay media to the desired final concentration and added 100 μl per well. All samples were performed in duplicate. The plates were incubated at 4° C. for 30 minutes. […] The plates were incubated for 2.5 hours at 4° C., then aspirated the media and washed 3× with cold DPBS (Gibco, #14040-117). The cells were lysed by adding 500 μl 0.2 NaOH, 2% SDS and incubating the plates for 15 minutes at 60° C. The samples were transferred to 12×75 tubes (Sarsted, #55.476, 5 ml) and the signal read on a gamma counter.
row,Binder,IC50 [nM]
1,B4,> 200
2,B5,> 200
3,B7,> 200
4,B8,> 200
5,B9,> 200
6,B10,> 200
7,B11,> 200
8,B12,> 200

# Molecular target: T1, human IGF-I receptor on cells (NIH-3T3 …)
# Assay: competition with 125I-IGF-I, NIH-3T3 cells expressing human IGF-1R, 4 C
# Description: as §1
row,Binder,IC50
1,B1,8 nM and 10 nM
2,B5,1.6 nM
3,B6,> 100 nM
4,B13,1.1 nM and 1.2 nM
5,B7,1.5 nM and 1.2 nM
6,B8,1.5 nM and 1.7 nM
7,B9,1 nM and 1.4 nM
8,B10,1.2 nM and < 0.4 nM and 0.75 nM
9,B11,> 50 nM
10,B12,1 nM and 0.7 nM
11,B2,0.5 nM and 1.3 nM
12,B3,1 nM and 0.8 nM
